# doi:10.1101/2022.11.12.516293
# Read-outs that look alike come from different tables or passages of the source.
# Legend:
# Assay in all cases: EMSA
# PU.1 [1] = biological target: T1, PU.1 (UniProt P17947 1-270)
# PU.1 [2] = biological target: T1, PU.1; remark: listed apart in the source
# PU.1 [3] = biological target: T1, PU.1; remark: listed apart in the source
binder,measurement,setting,value
rs1412444-T (dsDNA) DNA 1: CTATTTGCCTTTAAACACTGGAAATAACACCAGTGGC DNA 2: GCCACTGGTGTTATTTCCAGTGTTTAAAGGCAAATAG,binding result,PU.1 [1],binds
rs1320496-T (dsDNA) DNA 1: CAGGAGGGGAAGTGGGATGCATGAGAAGAGGACGCGTTTC DNA 2: GAAACGCGTCCTCTTCTCATGCATCCCACTTCCCCTCCTG,binding result,PU.1 [2],binds
rs1412445-T (dsDNA) DNA 1: GGTCATTAGGAGGATGTTGGTGCTATTAATAATAGAG DNA 2: CTCTATTATTAATAGCACCAACATCCTCCTAATGACC,binding result,PU.1 [3],no binding
